Measured values reported in IntAct's records for PubMed 16499958.

B1: Unconventional myosin-VI (Homo sapiens), Q9UM54 (parent)
chain: MEDGKPVWAPHPTDGFQMGNIVDIGPDSLTIEPLNQKGKTFLALINQVFPAEEDSKKDVEDNCSLMYLNEATLLHNIKVRYSKDRIYTYVANILIAVNPYFDIPKIYSSEAIKSYQGKSLGTRPPHVFAIADKAFRDMKVLKMSQSIIVSGESGAGKTENTKFVLRYLTESYGTGQDIDDRIVEANPLLEAFGNAKTVRNNNSSRFGKFVEIHFNEKSSVVGGFVSHYLLEKSRICVQGKEERNYHIFYRLCAGASEDIREKLHLSSPDNFRYLNRGCTRYFANKETDKQILQNRKSPEYLKAGSMKDPLLDDHGDFIRMCTAMKKIGLDDEEKLDLFRVVAGVLHLGNIDFEEAGSTSGGCNLKNKSAQSLEYCAELLGLDQDDLRVSLTTRVMLTTAGGTKGTVIKVPLKVEQANNARDALAKTVYSHLFDHVVNRVNQCFPFETSSYFIGVLDIAGFEYFEHNSFEQFCINYCNEKLQQFFNERILKEEQELYQKEGLGVNEVHYVDNQDCIDLIEAKLVGILDILDEENRLPQPSDQHFTSAVHQKHKDHFRLTIPRKSKLAVHRNIRDDEGFIIRHFAGAVCYETTQFVEKNNDALHMSLESLICESRDKFIRELFESSTNNNKDTKQKAGKLSFISVGNKFKTQLNLLLDKLRSTGASFIRCIKPNLKMTSHHFEGAQILSQLQCSGMVSVLDLMQGGYPSRASFHELYNMYKKYMPDKLARLDPRLFCKALFKALGLNENDYKFGLTKVFFRPGKFAEFDQIMKSDPDHLAELVKRVNHWLTCSRWKKVQWCSLSVIKLKNKIKYRAEACIKMQKTIRMWLCKRRHKPRIDGLVKVGTLKKRLDKFNEVVSVLKDGKPEMNKQIKNLEISIDTLMAKIKSTMMTQEQIQKEYDALVKSSEELLSALQKKKQQEEEAERLRRIQEEMEKERKRREEDEKRRRKEEEERRMKLEMEAKRKQEEEERKKREDDEKRIQAEVEAQLARQKEEESQQQAVLEQERRDRELALRIAQSEAELISDEAQADLALRRSLDSYPVSKNDGTRPKMTPEQMAKEMSEFLSRGPAVLATKAAAGTKKYDLSKWKYAELRDTINTSCDIELLAACREEFHRRLKVYHAWKSKNKKRNTETEQRAPKSVTDYDFAPFLNNSPQQNPAAQIPARQREIEMNRQQRFFRIPFIRPADQYKDPQSKKKGWWYAHFDGPWIARQMELHPDKPPILLVAGKDDMEMCELNLEETGLTRKRGAEILPRQFEEIWERCGGIQYLQNAIESRQARPTYATAMLQSLLK
B2: Rab5 GDP/GTP exchange factor (Homo sapiens), Q9UJ41 (parent)
chain: MSLKSERRGIHVDQSDLLCKKGCGYYGNPAWQGFCSKCWREEYHKARQKQIQEDWELAERLQREEEEAFASSQSSQGAQSLTFSKFEEKKTNEKTRKVTTVKKFFSASSRVGSKKEIQEAKAPSPSINRQTSIETDRVSKEFIEFLKTFHKTGQEIYKQTKLFLEGMHYKRDLSIEEQSECAQDFYHNVAERMQTRGKVPPERVEKIMDQIEKYIMTRLYKYVFCPETTDDEKKDLAIQKRIRALRWVTPQMLCVPVNEDIPEVSDMVVKAITDIIEMDSKRVPRDKLACITKCSKHIFNAIKITKNEPASADDFLPTLIYIVLKGNPPRLQSNIQYITRFCNPSRLMTGEDGYYFTNLCCAVAFIEKLDAQSLNLSQEDFDRYMSGQTSPRKQEAESWSPDACLGVKQMYKNLDLLSQLNERQERIMNEAKKLEKDLIDWTDGIAREVQDIVEKYPLEIKPPNQPLAAIDSENVENDKLPPPLQPQVYAG

Variants of: B1
Details: with ubb_human UBB

Variant	effect of a mutation on the interaction
A1013G	decreasing interaction

Variants of: B2
Details: with ubb_human UBB

Variant	effect of a mutation on the interaction
Y25F	decreasing interaction

Variants of: B2
Details: with ubb_human UBB
Remark: another data set of the same source

Variant	effect of a mutation on the interaction
A58G	decreasing interaction
